Data taken from paper PMC12866951 (Cell, 2026).

What was measured:
[1] = target: T1, S.c. Rad27 (Fen1) flap endonuclease with a 6xHis tag at the C-terminus (S. cerevisiae, UniProt P26793 1-382); experiment: mass photometry
T1 sequence (looked up): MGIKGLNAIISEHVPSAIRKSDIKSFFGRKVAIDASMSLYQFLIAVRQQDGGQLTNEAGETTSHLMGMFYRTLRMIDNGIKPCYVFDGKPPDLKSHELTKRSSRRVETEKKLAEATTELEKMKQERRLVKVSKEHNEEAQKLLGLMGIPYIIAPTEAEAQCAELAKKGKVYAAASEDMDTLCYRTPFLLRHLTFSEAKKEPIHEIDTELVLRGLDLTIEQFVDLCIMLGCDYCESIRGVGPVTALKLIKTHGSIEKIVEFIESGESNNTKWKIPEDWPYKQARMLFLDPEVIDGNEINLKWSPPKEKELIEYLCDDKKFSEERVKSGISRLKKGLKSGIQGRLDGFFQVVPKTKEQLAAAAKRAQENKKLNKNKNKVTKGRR

[2] = target: T1, S.c. Rad27 (Fen1) flap endonuclease …; experiment: single-molecule colocalisation on DNA

| Binder | binding result [1] | binding result [2] |
| --- | --- | --- |
| PCNA (as used in mass photometry; tag and label not stated) (natural protein, S. cerevisiae, UniProt P15873 1-258, looked up) MLEAKFEEASLFKRIIDGFKDCVQLVNFQCKEDGIIAQAVDDSRVLLVSLEIGVEAFQEYRCDHPVTLGMDLTSLSKILRCGNNTDTLTLIADNTPDSIILLFEDTKKDRIAEYSLKLMDIDADFLKIEELQYDSTLSLPSSEFSKIVRDLSQLSDSINIMITKETIKFVADGDIGSGSVIIKPFVDMEHPETSIKLEMDQPVDLTFGAKYLLDIIKGSSLSDRVGIRLSSEAPALFQFDLKSGFLQFFLAPKFNDEE | binds | – |
| LD655-PCNA (S. cerevisiae 3X FLAG-S6-tagged PCNA labeled with LD655) (natural protein, UniProt P15873 1-258, looked up, LD655 (from LD655-CoA, by SFP synthase) on the single serine residue of the S6 tag) MLEAKFEEASLFKRIIDGFKDCVQLVNFQCKEDGIIAQAVDDSRVLLVSLEIGVEAFQEYRCDHPVTLGMDLTSLSKILRCGNNTDTLTLIADNTPDSIILLFEDTKKDRIAEYSLKLMDIDADFLKIEELQYDSTLSLPSSEFSKIVRDLSQLSDSINIMITKETIKFVADGDIGSGSVIIKPFVDMEHPETSIKLEMDQPVDLTFGAKYLLDIIKGSSLSDRVGIRLSSEAPALFQFDLKSGFLQFFLAPKFNDEE | – | binds |
